Data set [1] is described as follows: folding stability dG unfold from chymotrypsin proteolysis; higher = more stable. The method in brief: (§1)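 How resistant each design was to proteolysis was captured as K50, inferred by Bayesian fitting of sequencing counts. Unfolding free energy was then derived relative to a sequence-predicted unfolded-state K50 and a shared folded-state K50, per protease or combined. Digestion used trypsin and chymotrypsin at 11 threefold-diluted concentrations plus a no-protease condition, on mini-proteins under 80 residues without cysteine in a PA-tagged cDNA display construct. Designs were kept only when AlphaFold2 dimer inter-PAE was above 15.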

Data set [2] in a line: folding stability dG unfold (combined trypsin and chymotrypsin); higher = more stable. The method in brief:
as §1

Data set [3] in a line: folding stability dG unfold from trypsin proteolysis; higher = more stable. The method in brief: as §1

± gives the half width of the 95% confidence interval.

Take “SAGGSAGGSAGGSVSVNIPLEELKERVPPSLSVSVSPTPVPEGGGVRVPVTLTSPAELGSAGGSAGGSAGGS [r4_119_JUSTAS]”: the “folding stability dG unfold” value in data set [1] amounted to 0.471 ± 0.025 kcal/mol; in data set [2] it was 0.763 ± 0.041 kcal/mol; in data set [3], 1 ± 0.031 kcal/mol.
The like results for “SAGGSAGGSAGGSVYIDPDKGYLVMWNEEDGYIVKYPIDPPNKIPSVDIEPIPPGDPLFSAGGSAGGSAGGS [r4_409_TrROS]” were, in that order, 1.13 ± 0.07 kcal/mol, 1.26 ± 0.11 kcal/mol and 1.51 ± 0.074 kcal/mol.
As to “SAGGSAGGSAGGSWLVRIPGHPIIFKGPEDQAEGIARELQKNGKPIEIEIIDPDEMKKFSAGGSAGGSAGGS [r4_131_TrROS]”, the “folding stability dG unfold” value was determined as 1.12 ± 0.14 kcal/mol in data set [1], 0.643 ± 0.23 kcal/mol in data set [2] and 0.286 ± 0.12 kcal/mol in data set [3].
As for “SAGGSAGGSAGGSYTVSEIPEEGLVLKTLPNGVVTRYKVSPDGSLEEIATFEPGNGVLIKSAGGSAGGSAGG [r7_659_JUSTAS]”, the figures for the “folding stability dG unfold” value in data set [1], in data set [2] and in data set [3] were 1.1 ± 0.096 kcal/mol, 0.766 ± 0.11 kcal/mol and -0.0116 ± 0.3 kcal/mol, respectively.
On to “SAGGSAGGSAGGTAEAVRKLAEEFSQQHGMPIKDVEVQRPPNKWKPVIRYPDNGKWIEISAGGSAGGSAGGS [r10_161_TrROS]”, for which the results for the “folding stability dG unfold” value in data set [1], in data set [2] and in data set [3] were 0.465 ± 0.13 kcal/mol, 0.388 ± 0.2 kcal/mol and 0.298 ± 0.086 kcal/mol, respectively.
The like results for “SAGGSAGGSAGGTAEEIKEAIEELGYKVEVEVTDDAVKIRLELPNGEKFEFEIPKEALESAGGSAGGSAGGS [r10_1029_TrMRF]” were, in that order, 1.92 ± 0.11 kcal/mol, 1.99 ± 0.16 kcal/mol and 2.3 ± 0.22 kcal/mol.
For “SAGGSAGGSAGGTAEIYFPNFPIRIDSVQLSPEKNHVQVSMENPDGPPVKGTMPPKDGILSAGGSAGGSAGG [r7_427_TrROS]” the same measures were -0.127 ± 0.027 kcal/mol, 0.903 ± 0.042 kcal/mol and 1.58 ± 0.031 kcal/mol.
For “SAGGSAGGSAGGTITLPGGAEVTEVERLPGGVLKITGVLTLPGGPVTVEVTLPVTPELLESAGGSAGGSAGG [r7_38_JUSTAS]” the same measures were 1.03 ± 0.049 kcal/mol, 1.03 ± 0.099 kcal/mol and 0.772 ± 0.034 kcal/mol.
Take “SAGGSAGGSAGGTKTYTITNEDGSKITIEEVDGKYVITYPNGEKKEIEGMTLEELLKALSAGGSAGGSAGGS [r10_569_TrROS_Hall]”: the “folding stability dG unfold” value in data set [1] amounted to 4.26 ± 0.21 kcal/mol; in data set [2], 4.35 ± 0.18 kcal/mol; in data set [3] it was 4.22 ± 0.58 kcal/mol.
For “SAGGSAGGSAGGTPIAETEVSEDPATGKLITTSKSPTDPKVYVTTTDLATGVPTTTPLLSAGGSAGGSAGGS [r10_1034_JUSTAS]” the same measures were 0.213 ± 0.047 kcal/mol, 0.524 ± 0.064 kcal/mol and 0.761 ± 0.031 kcal/mol.
The like results for “SAGGSAGGSAGGVDPTPDGILRVRVVIKDPNGDVFSEKEVEMTPEELEALKKAGYVILESAGGSAGGSAGGS [r10_749_JUSTAS]” were, in that order, 2.022 ± 0.018 kcal/mol, 1.82 ± 0.054 kcal/mol and 1.43 ± 0.033 kcal/mol.
For “SAGGSAGGSAGGVIVLKSDNSVIIITKKVYTENGKPKKTIIEKKNLKKKPPKPLSIEIISAGGSAGGSAGGS [r10_1043_JUSTAS]” the same measures were 0.374 ± 0.27 kcal/mol, 0.681 ± 0.15 kcal/mol and 0.77 ± 0.067 kcal/mol.
As to “SAGGSAGGSAGGVKYLTLTLPDGTVIKVPVDEPVEIRGEDGRPVEIVEAKVTEGPPGLGSAGGSAGGSAGGS [r10_20_JUSTAS]”, the results for the “folding stability dG unfold” value in data set [1], in data set [2] and in data set [3] were 2.326 ± 0.021 kcal/mol, 1.94 ± 0.072 kcal/mol and 0.963 ± 0.042 kcal/mol, respectively.
The like results for “SAGGSAGGSAGGVPEDVIMSPVSTTLVEKEVLSTEVTPEGAPKTVEKVLIVEKTLEPLLSAGGSAGGSAGGS [r10_758_JUSTAS]” were, in that order, -0.853 ± 0.24 kcal/mol, -0.429 ± 0.29 kcal/mol and 0.0499 ± 0.05 kcal/mol.
For “SAGGSAGGSAGGVPPGAPELRLKVTVTVTTVELDEDTNELTTTTETVTVEVTVKVGETLSAGGSAGGSAGGS [r10_133_TrROS_Hall]” the same measures were 1.17 ± 0.09 kcal/mol, 1.2 ± 0.18 kcal/mol and 0.616 ± 0.11 kcal/mol.
Regarding “SAGGSAGGSAGGVPRLERFTLSPNGLPVRIFVDGDRALVVFEGPDGGLAVATFAVSDIPFSAGGSAGGSAGG [r7_653_TrMRF]”, the results for the “folding stability dG unfold” value in data set [1], in data set [2] and in data set [3] were 1.62 ± 0.047 kcal/mol, 1.31 ± 0.064 kcal/mol and 0.857 ± 0.03 kcal/mol, respectively.
As for “SAGGSAGGSAGGVSPEANIKEVSKDPKTGLTTSLAKDPNSDNEITITKDSSGNSSINISSAGGSAGGSAGGS [r10_450_JUSTAS]”, the “folding stability dG unfold” value is 1.08 ± 0.029 kcal/mol in data set [1], 0.813 ± 0.073 kcal/mol in data set [2] and 0.121 ± 0.038 kcal/mol in data set [3].
For “SAGGSAGGSAGGWIFIIEIDPDNGEIKINWPNGNSIKIPPEDLDNMPIEIKPIPPPPNDKSAGGSAGGSAGG [r7_99_TrROS]” the same measures were 1.88 ± 0.097 kcal/mol, 1.87 ± 0.28 kcal/mol and 1.83 ± 0.19 kcal/mol.
Take “SAGGSAGGSAGGWVIRVTIKHPNGKKRTIMIPMPPDNIEEVAKNLMPQGYEIKEPEIFPGSAGGSAGGSAGG [r7_159_TrROS]”: the “folding stability dG unfold” value in data set [1] stood at 0.902 ± 0.36 kcal/mol; in data set [2], 0.813 ± 0.26 kcal/mol; in data set [3], 0.295 ± 0.12 kcal/mol.
“SAGGSAGGSAGGYLEAPIVIKIEFQIYDPDDGDPIATYEHTIMIPIEIELPPPPDPDNDSAGGSAGGSAGGS [r10_50_TrROS]”: the “folding stability dG unfold” value stood at 2.28 ± 0.17 kcal/mol in data set [1], 2.18 ± 0.23 kcal/mol in data set [2] and 1.97 ± 0.21 kcal/mol in data set [3].
With “SAGGSAGGSAGGYVGPDQPVIIVEVKVKGARIGKDGKIYYDFEVERIEIREVEEGDNLGSAGGSAGGSAGGS [r10_826_TrMRF]”, the figures for the “folding stability dG unfold” value in data set [1], in data set [2] and in data set [3] were 1.9 ± 0.088 kcal/mol, 1.82 ± 0.17 kcal/mol and 2.05 ± 0.21 kcal/mol, respectively.
In the case of “SAGGSAGGSAGIDPPDIKLRVESELGPGPVRRLLVYLEGPGELVLVDVPADGSVSVSIFPSAGGSAGGSAGG [r11_55_TrMRF]”, the entries for the “folding stability dG unfold” value in data set [1], in data set [2] and in data set [3] were 2.9 ± 0.28 kcal/mol, 2.9 ± 0.23 kcal/mol and 2.85 ± 0.18 kcal/mol, respectively.
Turning to “SAGGSAGGSAGIGSKKPVIKKNIEIEPEIKVEGGKGGSKVKIEYKAKIEIKVYIISKNNPSAGGSAGGSAGG [r17_186_TrMRF]”, the entries for the “folding stability dG unfold” value in data set [1], in data set [2] and in data set [3] were 2.15 ± 0.13 kcal/mol, 1.98 ± 0.4 kcal/mol and 1.28 ± 0.22 kcal/mol, respectively.
Consider “SAGGSAGGSAGIKIEWEQMPGGYMQYKVTIPDPNGKPLKIDVHYKSPEDAEEKAKELLKSSAGGSAGGSAGG [r11_819_TrROS]”, for which the “folding stability dG unfold” value in data set [1] is 0.386 ± 0.26 kcal/mol; in data set [2], 0.333 ± 0.2 kcal/mol; in data set [3], 0.215 ± 0.089 kcal/mol.
For “SAGGSAGGSAGITIWFPYDNIPEILEEAQKNGMEIKSVERVPDGWYLIKMPGKPIEIHIWSAGGSAGGSAGG [r17_379_TrROS]” the same measures were 1.55 ± 0.06 kcal/mol, 1.33 ± 0.07 kcal/mol and 0.94 ± 0.032 kcal/mol.
Turning to “SAGGSAGGSAGIWIPIKDPKEAVDYIQEWFHKKGGYDINIEPTEVYPDGWVRVEINIEPKSAGGSAGGSAGG [r17_430_TrROS]”, the figures for the “folding stability dG unfold” value in data set [1], in data set [2] and in data set [3] were 1.26 ± 0.18 kcal/mol, 1.06 ± 0.26 kcal/mol and 0.151 ± 0.1 kcal/mol, respectively.
In the case of “SAGGSAGGSAGKAKIEVVEVDKNGKVRLKIKLENGEVKEIENADEITINGKKIKVEKIEPSAGGSAGGSAGG [r11_1017_TrROS_Hall]”, the “folding stability dG unfold” value in data set [1] was 1.52 ± 0.042 kcal/mol; in data set [2] it was 1.11 ± 0.1 kcal/mol; in data set [3], -0.311 ± 0.25 kcal/mol.
The like results for “SAGGSAGGSAGKDIAKNIPPGAKILPIEPQPRGGGLYVKIEIEMPDPNGKKEKVTFTFPISAGGSAGGSAGG [r17_140_TrROS]” were, in that order, 0.589 ± 0.26 kcal/mol, 0.366 ± 0.26 kcal/mol and -0.467 ± 0.14 kcal/mol.
Turning to “SAGGSAGGSAGKEEIKIEITKVEPLEDGSYIAEVIATPKNGKKIPYTALIDPKTGKITIGSAGGSAGGSAGG [r11_31_TrMRF]”, the results for the “folding stability dG unfold” value in data set [1], in data set [2] and in data set [3] were 0.18 ± 0.14 kcal/mol, 0.426 ± 0.087 kcal/mol and 0.527 ± 0.11 kcal/mol, respectively.
The like results for “SAGGSAGGSAGKIEIDPSKPALVRVRLVPENGIPREIVVEAGDLSKLLPENFKVLSIELGSAGGSAGGSAGG [r17_449_TrMRF]” were, in that order, 0.397 ± 0.06 kcal/mol, 0.407 ± 0.067 kcal/mol and 0.295 ± 0.09 kcal/mol.
For “SAGGSAGGSAGKIELTNIQVWPGPNGRPWISMTISFPDGPVTIWIPFDNPDNIEIEIKPGSAGGSAGGSAGG [r17_64_TrROS]” the same measures were 3.02 ± 0.043 kcal/mol, 2.82 ± 0.084 kcal/mol and 2.63 ± 0.1 kcal/mol.
Take “SAGGSAGGSAGKIEVEGDVEVTVFPPYGLATVTTPNGERYVLLVETRPDGSKRVLLFSAGSAGGSAGGSAGG [r11_331_TrMRF]”: the “folding stability dG unfold” value stood at 2.37 ± 0.026 kcal/mol in data set [1], 2.26 ± 0.045 kcal/mol in data set [2] and 2.02 ± 0.039 kcal/mol in data set [3].
For “SAGGSAGGSAGKIKIEKDKNGNYRVILKNGKVYEFKSIEEAKEELKKKFPNIKEIEIVKTSAGGSAGGSAGG [r11_806_TrROS_Hall]”, the “folding stability dG unfold” value in data set [1] came out at 4.29 ± 0.29 kcal/mol; in data set [2], 3.87 ± 0.3 kcal/mol; in data set [3], 3.21 ± 0.18 kcal/mol.
The like results for “SAGGSAGGSAGKIRDPNGNPFQIKDVEVEPPGPGDPYISIEYPDNGEEFTLPPEDAEDLFSAGGSAGGSAGG [r17_517_TrROS]” were, in that order, 2.13 ± 0.052 kcal/mol, 1.64 ± 0.27 kcal/mol and 0.95 ± 0.038 kcal/mol.
For “SAGGSAGGSAGKKEKVILLPVDAEPDETPEELAKKLKELNPDVEVLGFDPETGYVLVKVPSAGGSAGGSAGG [r11_465_TrMRF]”, the “folding stability dG unfold” value in data set [1] was -0.0143 ± 0.28 kcal/mol; in data set [2], 0.149 ± 0.18 kcal/mol; in data set [3] it was 0.107 ± 0.053 kcal/mol.
For “SAGGSAGGSAGKKELTFKDKNGKTITVTLEDGEIKEIKIEKPPKPKVVKTEKKYVPKEELSAGGSAGGSAGG [r17_287_TrROS_Hall]” the same measures were 0.0761 ± 0.069 kcal/mol, 0.135 ± 0.4 kcal/mol and 0.0355 ± 0.16 kcal/mol.

(Values after the supplement of paper PMC12764529.)
